In data set [1] the test system is AP2 (synthetic (de novo)). Put plainly: spectral shift. The note with it: Spectral shift: 10 mM Tris-HCl pH 8.0, 0.05% Tween 20, no added salt, 25 C, Cy5 oligo (20 nM stock), 30 min at RT; MST with oncogenic RNAs in human plasma-like ….
Data set [2] deals with AP2-short (synthetic (de novo)). Put plainly: spectral shift. To be noted: Spectral shift: 10 mM Tris-HCl pH 8.0, 0.05% Tween 20, no added salt, 25 C, Cy5 oligo (20 nM stock), 30 min at RT; MST with oncogenic RNAs in human plasma-like ….
Data set [3] has as its system AP2-short Q to S (synthetic (de novo)). The data set is described as follows: spectral shift. To be noted: Spectral shift: 10 mM Tris-HCl pH 8.0, 0.05% Tween 20, no added salt, 25 C, Cy5 oligo (20 nM stock), 30 min at RT; MST with oncogenic RNAs in human plasma-like ….
Data set [4] has as its system CP1 (synthetic (de novo)). The data set is described as follows: spectral shift. To be noted: Spectral shift: 10 mM Tris-HCl pH 8.0, 0.05% Tween 20, no added salt, 25 C, Cy5 oligo (20 nM stock), 30 min at RT; MST with oncogenic RNAs in human plasma-like ….
The subject of data set [5] is AP2 QNQ to TNH (synthetic (de novo)). The data set is described as follows: spectral shift. To be noted: Spectral shift: 10 mM Tris-HCl pH 8.0, 0.05% Tween 20, no added salt, 25 C, Cy5 oligo (20 nM stock), 30 min at RT; MST with oncogenic RNAs in human plasma-like ….
The test system of data set [6] is CP2 (synthetic (de novo)). Put plainly: spectral shift. To be noted: Spectral shift: 10 mM Tris-HCl pH 8.0, 0.05% Tween 20, no added salt, 25 C, Cy5 oligo (20 nM stock), 30 min at RT; MST with oncogenic RNAs in human plasma-like ….
Data set [7] concerns CP1 (synthetic (de novo)). Put plainly: MST. The note with it: Spectral shift: 10 mM Tris-HCl pH 8.0, 0.05% Tween 20, no added salt, 25 C, Cy5 oligo (20 nM stock), 30 min at RT; MST with oncogenic RNAs in human plasma-like ….
The target in data set [8] is hnRNPK (UniProt P61978). Put plainly: fluorescence anisotropy. To be noted: Spectral shift: 10 mM Tris-HCl pH 8.0, 0.05% Tween 20, no added salt, 25 C, Cy5 oligo (20 nM stock), 30 min at RT; MST with oncogenic RNAs in human plasma-like …; cited from earlier work. (In general: Polarisation of emitted light reports the rotation of a fluorescent probe.)
Data set [9] addresses Cdk6 3′UTR RNA. The note with it: fluorescence anisotropy binding assay, previous study; read-out: KD^hnRNPK, Cdk6 3′UTR RNA; cited from earlier work. The protocol:
To evaluate the synthetic ssRNA-binding peptide’s affinity for biologically derived RNA targets, we have chosen two cytosine-rich RNA motifs from the oncogenic Cdk6 3′UTR RNA and MYU lncRNA. These motifs have previously been identified as targets of hnRNPK,[45] and they both consist of extended cytosine repeats (>4 nt) within a necessary single-stranded region for the progression of colon cancer cells. […] The KD^CP1s were measured using microscale thermophoresis in a human plasma-like medium. Cytosines predicted to be single-stranded within RNA ligands are highlighted in red. Cytosine-to-adenine substitution is highlighted in blue. The predicted secondary structures are available in Figure S11. The complete thermodynamic plots are shown in Figure S12. *The KD^hnRNPKs are the dissociation ...

Data set [10] deals with MYU lncRNA. To be noted: fluorescence anisotropy binding assay, previous study; read-out: KD^hnRNPK, MYU lncRNA; cited from earlier work. The protocol: Figure 7 Assessment of the affinity of poly(C) RNA-binding peptides to cytosine-rich oncogenic RNA motifs. […] The KD^CP1s were measured using microscale thermophoresis in a human plasma-like medium. Cytosines predicted to be single-stranded within RNA ligands are highlighted in red. Cytosine-to-adenine substitution is highlighted in blue. The predicted secondary structures are available in Figure S11. The complete thermodynamic plots are shown in Figure S12. *The KD^hnRNPKs are the dissociation ...

On to AAAAAAAAAAAA [poly(A) DNA], for which the binding signal (fold weaker than poly(A) RNA) in data set [1] was determined as 2.
By Kd is commonly meant the constant that tells how readily two partners part at equilibrium. In the case of AAAAAAAAAAAA [poly(A) RNA], the results for the Kd in [1], in [2] and in data set [3] were 18800 nM, 82000 nM and 115000 nM, respectively. The binding signal (fold weaker than poly(C) RNA) in data set [4] was determined as 4.
In the case of CCCCCCCCCCCC [poly(C) DNA], the binding signal (fold weaker than poly(C) RNA) in data set [4] was 7.
Take CCCCCCCCCCCC [poly(C) RNA]: the dissociation constant Kd in [5] worked out at 120000 nM; in data set [4], 900 nM; in data set [6], 1200 nM.
Turning to “GGCUCCCCCGACCUCUGUGCUCCCCUCCCCCGACCUCUGUGC [MYU lncRNA motif]”, the Kd in data set [7] was 107 nM.
In the case of “GGUCCCCCGCCUCAUUCGCCCCUCUGCUCCC [Cdk6 3'UTR RNA motif]”, the Kd in [7] was 103 nM; in data set [8] it was 450 nM.
With “hnRNPK: endogenous RNA-binding protein with KH domain, binds cytosine-rich RNA motifs”, the Kd in data set [9] is 450 nM; in [10], 70 ± 7 nM.
On to poly(C) RNA / antisense DNA hybrid, for which the binding signal (fold weaker than poly(C) RNA) in data set [4] worked out at 6.

Values taken from publication PMC10777347, “De Novo Single-Stranded RNA-Binding Peptides Discovered by Codon-Restricted mRNA Display” (Biomacromolecules, 2023).
